# Measured values from patent US9695460B2, “Method of analyzing L-tryptophan in biological samples, and kit used therein” (Toyama Prefecture, priority 2011, dated 2017).
# B1: StaO, L-tryptophan oxidase derived from Streptomyces sp. TA-A0724, SEQ ID NO: 2 (Streptomyces sp. TP-A0274) (protein)
# chain: MTAPLQDSDGPDDAIGGPKQVTVIGAGIAGLVTAYELERLGHHVQIIEGSDDIGGRIHTHRFSGAGGPGPFAEMGAMRIPAGHRLTMHYIAELGLQNQVREFRTLFSDDAAYLPSSAGYLRVREAHDTLVDEFATGLPSAHYRQDTLLFGAWLDASIRAIAPRQFYDGLHNDIGVELLNLVDDIDLTPYRCGTARNRIDLHALFADHPRVRASCPPRLERFLDDVLDETSSSIVRLKDGMDELPRRLASRIRGKISLGQEVTGIDVHDDTVTLTVRQGLRTVTRTCDYVVCTIPFTVLRTLRLTGFDQDKLDIVHETKYWPATKIAFHCREPFWEKDGISGGASFTGGHVRQTYYPPAEGDPALGAVLLASYTIGPDAEALARMDEAERDALVAKELSVMHPELRRPGMVLAVAGRDWGARRWSRGAATVRWGQEAALREAERRECARPQKGLFFAGEHCSSKPAWIEGAIESAIDAAHEIEWYEPRASRVFAASRLSRSDRSA
# notes: peroxidase-coupled assay
# B2: StaO: L-tryptophan oxidase with the amino acid sequence of SEQ ID NO: 2, derived from Streptomyces sp. TA-A0724, His-tagged, expressed in E. coli (protein)
# chain: B1 chain
# modifications: His tag; Streptomyces sp. TP-A0274
# notes: TA-A0724, His-tagged, expressed in E. coli
# Columns and labels:
# [1] = system: VioA, L-tryptophan oxidase derived from Chromobacterium violaceum, SEQ ID NO: 1; conditions: reported in Balibar and Walsh (2006) Biochemistry 45, 15444-15457; cited from earlier work
# [2] = system: L-amino acid oxidase derived from Coprinus sp.; conditions: Japanese Un-examined patent publication No. 2001-069974, read-out: Km value for L-tryptophan; cited from earlier work
# [3] = substrate: N[C@@H](Cc1c[nH]c2ccccc12)C(=O)O; assay: Km value of L-tryptophan oxidase StaO for L-tryptophan (peroxidase-coupled, absorbance at 505 nm); format: biochemical, Streptomyces sp. TA-A0724; conditions: other: StaO, 20 mM tris-hydrochloric acid buffer pH 8.0, 30° C., 0-500 μM L-tryptophan, 0.5 mU/mL enzyme
# Description: StaO is an enzyme that has the amino acid sequence given in SEQ ID NO: 2 in the Sequence Listing, that has oxidase activity of acting on L-tryptophan in the presence of oxygen and water to produce hydrogen peroxide and ammonia, that has oxidase activity on L-phenylalanine falling within a range of 0 to 3% of the oxidase activity on L-tryptophan, and that has no oxidase activity on the protein-constituting amino acids other than L-tryptophan and L-phenylalanine. StaO can be derived from Streptomyces sp. TA-A0724. The gene encoding StaO was discovered in the biosynthesis gene cluster of staurosporine, an antibiotic produced by the above bacterium (Onaka, H., Taniguchi, S., Igarashi, Y., and Furumai, T. (2002) J Antibiot 55, 1063-1071). This gene has no significant homology with the VioA gene, nor is there any example of biological analysis of the genetic product. Thus, the properties of the genetic product were unknown. […]
# The supernatant of each solution of the ruptured expression strains was loaded onto an Ni Sepharose column made by GE Healthcare, washed with 20 mM Tris-HCl and 50 mM imidazole (pH 8.0), and then eluted with a solution of 20 mM Tris-HCl and 500 mM imidazole (pH 8.0) to purify and recover the target enzyme. The base sequences of these enzymes were determined, and are shown as SEQ ID NOS: 3 and 4. […]
# [4] = Substrate specificity for amino acids of L-tryptophan oxidase (peroxidase-coupled, absorbance at 505 nm); format: biochemical
# Experimental: A reaction solution of 20 mM tris-hydrochloric acid buffer (pH 8.0), 5 mM L-tryptophan, 1 mM phenol, 1 mM 4-aminoantipyrine, 15 U/mL horseradish-derived peroxidase, and some quantity of L-tryptophan oxidase enzyme solution was prepared and the change in absorbance at 505 nm was measured at 30° C. The mol absorbance coefficient of quinoneimine dye was considered to be 6.4 mM^−1·cm^−1. Activity generating 1 μmol of hydrogen peroxide per minute was defined as 1 U. The detection limit of this method was 0.5%.
# Reaction solutions each containing 20 mM of tris-hydrochloric acid buffer (pH 8.0), 1 mM of phenol, 1 mM of 4-aminoantipyrine, 15 U/mL of horseradish-derived peroxidase, 0.2 to 20 mU/mL of L-tryptophan oxidase, and 0.5 mM of an amino acid (one of the 20 protein-constituting amino acids) were prepared and the change in absorbance at 505 nm was measured at 30° C. The relative activity for each amino acid was calculated from the measurement values obtained, yielding the results given in Table 1. The detection limit of this method was 0.5%.
# [5] = Dependence on reaction temperature; format: biochemical
# Experimental: StaO and VioA activity measurement was conducted at reaction temperatures of 20, 30, 40, 50, and 60° C. An activity measurement reaction solution of 20 mM of tris-hydrochloric acid buffer (pH 8.0), 1 mM of L-tryptophan, 1 mM of phenol, 1 mM of 4-aminoantipyrine, 15 U/mL of horseradish-derived peroxidase, and L-tryptophan oxidase enzyme solution was employed. Everything in the above reaction solution but the peroxidase and L-tryptophan oxidase enzyme solution was admixed, and 10 minutes of preincubation was conducted at various temperatures. While maintaining the temperature of the reaction solution, the peroxidase and the L-tryptophan oxidase enzyme solution were added and the reaction was begun. The change in absorbance at 505 nm was rapidly measured. […] The effect of deactivation at high temperature became marked in StaO at 60° C. and in VioA at 50° C. and above, making it difficult to accurately measure the activity.
# [6] = Thermal stability (residual activity after 1 hour heat treatment); format: physicochemical; conditions: activity prior to heat treatment as 100, StaO in 20% glycerol, VioA in 10% glycerol
# Experimental: The activity was measured after heat treating StaO enzyme solutions containing 20% glycerol and VioA enzyme solutions containing 10% glycerol for 1 hour at 30, 40, 50, 60, and 70° C. […] At heat treatments of 50° C. and above, the residual activity dropped below the detection limit.
# [7] = Stability on storage at 4° C. at various glycerol concentrations; format: physicochemical
# Experimental: Glycerol was added to final concentrations of 0 to 50% (v/v) to StaO and VioA purified enzyme solutions. The enzymatic solutions were stored at 4° C., sampled over time, and the activity was measured. The change over time in the residual activity of StaO and VioA stored in the presence of various glycerol concentrations are given in FIGS. 7 and 8.
# [8] = 0.5 mM amino acid, pH 8.0, 30° C., No activity = at or below detection limit 0.5%
# [9] = activity at 20° C. as 100, 1 mM L-tryptophan, pH 8.0
# [10] = activity at 20° C. as 100, * = estimated value when greatly impacted by thermal deactivation
molecule,measurement,setting,value
N[C@@H](Cc1c[nH]c2ccccc12)C(=O)O [L-tryptophan],Km,[1],30 µM
same,Km,[2],650 µM
B1,Km,[3],19 μM μM
B2,"Relative activity, L-tryptophan","[4]; 0.5 mM amino acid, pH 8.0, 30° C., L-tryptophan = 100%",100%
same,"Relative activity, L-tyrosine",[4]; [8],No activity
same,"Relative activity, other amino acids (17 listed in the footnote)",[4]; [8],No activity
same,Reactivity to amino acids other than L-tryptophan,[4]; relative activity below the detection limit (0.5%),did not exhibit reactivity
same,Relative activity at reaction temperature 20° C.,[5]; [9],100
same,Relative activity at reaction temperature 30° C.,[5]; [9],156
same,Relative activity at reaction temperature 40° C.,[5]; [9],268
same,Relative activity at reaction temperature 50° C.,[5]; [10],427
same,Relative activity at reaction temperature 60° C.,[5]; [10],480*
same,Reaction temperature at which the effect of deactivation became marked,[5]; activity measurement at 20-60° C.,60 °C
same,Relative (residual) activity following heat treatment at 30° C.,[6],73
same,Relative (residual) activity following heat treatment at 40° C.,[6],1
same,Relative (residual) activity following heat treatment at ≧50° C.,[6],<1
same,Stability of enzyme solution on storage,[7]; 30% or more of glycerol added,high stability
same,Stability of enzyme solution on storage,"[7]; buffer only, no glycerol",unstable
